Measured values published in patent publication US6083711, “Proteases compositions capable of binding to said site, and methods of use thereof” (SmithKline Beecham Corporation, dated 2000).

Biological target: the molecule itself
Assay: crystal structure, homodimer

| Protein | binding result |
| --- | --- |
| unliganded HSV-2 protease (enzyme) MASAEMRERLEAPLPDRAVPIYVAGFLALYDSGDPGELALDPDTVRAALPPENPLPINVNHRARCEVGRVLAVVNDPRGPFFVGLIACVQLERVLETAASAAIFERRGPALSREERLLYLITNYLPSVSLSTKRRGDEVPPDRTLFAHVALCAIGRRLGTIVTYDTSLDAAIAPFRHLDPATREGVRREAAEAELALAGRTWAPGVEALTHTLLSTAVNNMMLRDRWSLVAERRRQAGIAGHTYLQA | binds |
| HSV-1 protease (enzyme) MAADAPGDRMEEPLPDRAVPIYVAGFLALYDSGDSGELALDPDTVRAALPPDNPLPINVNHRAGCEVGRVLAVVDDPRGPFFVGLIACVQLERVLETAASAAIFERRGPPLSREERLLYLITNYLPSVSLATKRLGGEAHPDRTLFAHVALCAIGRRLGTIVTYDTGLDAAIAPFRHLSPASREGARRLAAEAELALSGRTWAPGVEALTHTLLSTAVNNMMLRDRWSLVAERRRQAGIAGHTYLQA | binds |
| protease from delta9 LQAS-12aa ext H6(C) VZV (enzyme) MEALYVAGLYALYSKDEGELNITPEIVRSALPPTSKIPINIDHRKDCVVGEVIAIIEDIRGPFFLGIVRCPQLHAVLFEAAHSNFFGNRDSVLSPLERALYLVTNYLPSVSLSSKRLSPNEIPDGNFFTHVALCVVGRRVGTVVNYDCTPESSIEPFRVLSMESKARLLSLVKDYAGLNKVWKVSEDKLAKVLLSTAVNNMLLRDRWDVVAKRRREAGIMGHVYLQA | binds |
| CMV A143V protease (enzyme) MTMDEQQSQAVAPVYVGGFLARYDQSPDEAELLLPRDVVEHWLHAQGQGQPSLSVALPLNINHDDTAVVGHVAAMQSVRDGLFCLGCVTSPRFLEIVRRASEKSELVSRGPVSPLQPDKVVEFLSGSYAGLSLSSRRCDDVEVATSLSGSETTPFKHVALCSVGRRRGTLAVYGRDPEWVTQRFPDLTAADRDGLRAQWQRCGSTAVDASGDPFRSDSYGLLGNSVDALYIRERLPKLRYDKQLVGVTERESYVKA | binds |
